Holding throughout (assay type): cell-based
Data set [1] relates to human eosinophils. Put plainly: Antagonist activity using shape change of human eosinophils as index (Example 19). Conditions: DKPGD2 0.1-1000 nM, FIG. 16. On the procedure: Eosinophils were separated from human peripheral blood in the same manner as in Example 11. The isolated human eosinophils were suspended with Dulbecco's phosphate buffered saline (hereinafter, referred to as D-PBS (−)) (NACALAI TESQUE, Inc.) and performed a reaction in a 5% CO2 incubator at 37° C. for 1 hour and 30 minutes. Thereafter, the cells were seeded in a 96-well plate at 2×10^5 cells/well using 10% FBS-containing RPMI1640. Next, an isotype control antibody [CELL LAB Rat IgG2b Isotype Control (Beckman Coulter Inc.)] at a final concentration of 10 μg/mL or Lym2 antibody; or small molecular CRTH2 antagonist 00000459 (Cayman Chemical) at a final concentration of 10 μM as a positive control, was added thereto to cause a reaction in a 5% CO2 incubator at 37° C. for 30 minutes.
Next, DKPGD2 (Cayman Chemical) at each of final concentrations of 0.1, 1, 10, 100, and 1000 nM was added thereto to cause a reaction in a 5% CO2 incubator at 37° C. for 60 minutes. After the reaction, the cells were washed twice with ice-cold PBS, Fixation Buffer (BD Biosciences) was added at 200 μL/well, and the resultant was suspended well and allowed to stand at 4° C. for 30 minutes. After that, the cells were washed twice with SM, and shape change of eosinophils was analyzed by flow cytometry (BD Biosciences, FACS CantoII).
The shape change of eosinophils was analyzed based on an increase in Forward Scatter Light (FSC) plot which is an index of the cell size, the cell surface area, or the cell diameter in the analysis using flow cytometry and the percentage (%) of eosinophils detected in the gate of high FSC was calculated based on the FSC of DKPGD2-untreated eosinophils.

For the next data set, the system named is human basophils. Put plainly: Basophil depletion (cytotoxic) activity in human peripheral blood cells, flow cytometry. Particulars: Example 8; 0.01-1000 ng/mL, 37° C., 20 hours; FIG. 3. The protocol:
(§1) Human peripheral blood collected by adding a heparin sodium injection liquid was centrifuged at 4° C. and 1500 rpm for 30 minutes, and the plasma was recovered.
(§2) After the plasma was recovered, PBS (NACALAI TESQUE, Inc.) was added to the pellet containing the red blood up to the original volume of blood and the pellet was suspended. Next, to 1 mL of the suspension, 10 mL of hemolyzing solution [solution obtained by diluting 10×RBC Lysis buffer (eBioscience) 10 times with sterile water] was added to be mixed by inversion. The resultant was allowed to stand at room temperature for 10 minutes and centrifuged at room temperature and 1500 rpm for 5 minutes and washed twice with PBS after the supernatant was removed therefrom.
(§3) Thereafter, the cell pellet was suspended with the recovered plasma and the cells were seeded in a 48-well plate at 300 μL/well, each of chLym2, humanized Lym2 antibodies LV0HV0, LV0HV1, and LV0HV2a, or an isotype control antibody [IgG1 antibody prepared according to the method described in Example 5 using a vector encoding an anti-2,4-dinitrophenol (DNP) IgG1 antibody described in Clin Cancer Res 2005, 11(8), 3126 to 3135 (hereinafter, referred to as anti-DNP IgG1 antibody)] were added at each final concentrations of 1000, 100, 33, 11, 3.7, 1.2, 0.4, and 0.01 ng/mL to cause a reaction in a 5% CO2 incubator at 37° C. for 20 hours.
(§4) After the reaction, the cell fluid in each well was recovered, 10 mL of SM was added thereto, 200 μL per sample of CountBright Absolute Counting Beads, for flow cytometry (Molecular Probes) was added as control beads, and the fluid was centrifuged at 4° C. and 2000 rpm for 10 minutes, and then the supernatant was removed. The resultant was washed twice with SM, 10000 μg/mL of IgG from human serum (Sigma-Aldrich Co. LLC) diluted with SM was added at 300 μL/sample and suspended to cause a reaction at 4° C. for 30 minutes. […]
(§5) The cells were washed twice with SM, suspended by SM containing 1% of 7-AAD Staining Solution (BD Biosciences), allowed to stand at 4° C. for 10 minutes, and the fluorescent intensity was analyzed by flow cytometry (BD Biosciences, FACS CantoII).
(§6) Human eosinophils were detected as 7-AAD negative siglec8-PE positive fractions in granulocyte fractions of FSC-SSC deployment. Human basophils were detected as 7-AAD negative fractions, CD123-PC-Cy7 positive fractions, FcεRI-APC positive fractions in lymphocyte fractions of FSC-SSC deployment. The cell depletion activity was evaluated by analyzing the count number of each cell per a certain number of CountBright. […]
(A flow cytometer gives signals particle by particle.)

For data set [2], the system named is human eosinophils. Put plainly: Eosinophil depletion (cytotoxic) activity in human peripheral blood cells, flow cytometry. Conditions: Example 8; 0.01-1000 ng/mL, 37° C., 20 hours; FIG. 3. The protocol:
as §1, §2, §3, §4, §5, §6

As for `CCCCCC(=O)CC[C@H]1C(=O)C[C@H](O)[C@@H]1C/C=C\CCCC(=O)O` [DKPGD2, 13, 14-dihydro-15-keto prostaglandin D2], in the data set on human eosinophils [1] (37° C., 60 minutes), the “shape change of eosinophils induced by ligand” value was “induced shape change of eosinophils in a concentration-dependent manner”.

In the case of `Cc1c(Cc2ccc3ccccc3n2)c2cc(F)ccc2n1CC(=O)O` [OC000459], the “inhibition of DKPGD2-dependent shape change of eosinophils (antagonist activity)” value in the data set on human eosinophils [1] (antibody 10 μg/mL or small molecule 10 μM) is given as “inhibited”.

B1: LV0HV0: humanized Lym2 antibody, VL LV0 (SEQ ID NO: 33), VH HV0 (SEQ ID NO: 49) (antibody, V domains shown)
VH: EVQLVESGGGVVQPGRSLRLSCAASGFTFSNYYMAWVRQAPGKGLEWVATISYDGSSTYYRDSVKGRFTISRDNAKNSLYLQMNSLRAEDTAVYYCARHRGYYYSGAGYFDYWGQGTMVTVSS
VL: DIVMTQTPLSLPVTPGESASISCRSSQSLEYSDGYTYLEWYLQKPGQSPQVLIYGVSNRFSGVPDRFSGSGSGTDFTLKISRVEAEDVGVYYCFQATHDPLTFGQGTKLEIK
B1: the “cytotoxic activity against basophils” value in the data set with human basophils is “comparable to the chimeric Lym2 antibody chLym2”. Besides, the “cytotoxic activity against eosinophils” value in the data set with human eosinophils [2] is “comparable to the chimeric Lym2 antibody chLym2”.

B2: LV0HV2a: humanized Lym2 antibody, VL LV0 (SEQ ID NO: 33), VH HV2a (SEQ ID NO: 53) (antibody, V domains shown)
VH: EVQLVESGGGVVQPGRSLRLSCAASGFTFSNYYMAWVRQAPGKGLEWVATISYDGSSTYYRDSVKGRFTISRDNAKNSLYLQMNSLRAEDTATYYCARHRGYYYSGAGYFDYWGQGVMVTVSS
VL: DIVMTQTPLSLPVTPGESASISCRSSQSLEYSDGYTYLEWYLQKPGQSPQVLIYGVSNRFSGVPDRFSGSGSGTDFTLKISRVEAEDVGVYYCFQATHDPLTFGQGTKLEIK
Turning to B2, the “cytotoxic activity against basophils” value in the data set on human basophils is “comparable to the chimeric Lym2 antibody chLym2”. Further, the “cytotoxic activity against eosinophils” value with human eosinophils [2] was “comparable to the chimeric Lym2 antibody chLym2”.

The record behind these values is patent publication US10100120B2, “Antibody which specifically binds to human CRTH2” (KYOWA HAKKO KIRIN CO., LTD, priority 2015, dated 2018).
